# Laboratory results from patent EP4480964A1, “TRANSFERRIN RECEPTOR-BINDING MOLECULES, CONJUGATES THEREOF AND THEIR USES TO PREVENT OR TREAT MUSCULAR DISEASES” (Vect-Horus, priority 2023, dated 2024).
# B1: B8-siSOD1m: VHH-Oligo conjugate of VHH B8 and siSOD1m (conjugate)
# VHH: EVQLVESGGGVVQPGGSLRLSCAASGEIFSINFMRWYRQAPGKQREWVAGFTRDGSTNYPDSAKGRFTISRDNAKNTVYLQIDSLKPEDTAVYYCYMLDTWGQGTQVTVSS
# modifications: left off: things letters cannot carry; small tags and cut ends
# B2: B8-siSOD1h: VHH-Oligo conjugate of VHH B8 and siSOD1h (conjugate)
# VHH: B1 VHH
# modifications: left off: things letters cannot carry; small tags and cut ends
# B3: C5-siSOD1m: VHH-Oligo conjugate of VHH C5 and siSOD1m (conjugate)
# VHH: EVQLVESGGGVVQPGGSLKLSCVASGTDFSINFIRWYRQAPGKQREFVAGFTATGNTNYADSMKGRFTISRDNTKNAVYLQIDSLKPEDTAVYYCYMLDKWGQGTQVTVSS
# modifications: left off: things letters cannot carry; small tags and cut ends
# B4: C5-siSOD1h: VHH-Oligo conjugate of VHH C5 and siSOD1h; Figure 12 legend: VHH is C5 (conjugate)
# VHH: B3 VHH
# modifications: left off: things letters cannot carry; small tags and cut ends
# Tests used:
# hTfR = molecular target: T1, hTfR (Homo sapiens, UniProt P02786); test: Competition assay with fluorescent reference C5-Alexa680 on living MCF-7 cells; format: binding; details: cells expressing human TfR (MCF-7), C5-Alexa680 10 nM, 3 hrs at 37°C; Ki similar or lower than free VHHs
# T1 construct: or human breast ductal carcinoma MCF-7 cells, respectively; endogenous in cells; host or cells: MCF-7 human breast ductal carcinoma cells
# T1 sequence (P02786 whole entry): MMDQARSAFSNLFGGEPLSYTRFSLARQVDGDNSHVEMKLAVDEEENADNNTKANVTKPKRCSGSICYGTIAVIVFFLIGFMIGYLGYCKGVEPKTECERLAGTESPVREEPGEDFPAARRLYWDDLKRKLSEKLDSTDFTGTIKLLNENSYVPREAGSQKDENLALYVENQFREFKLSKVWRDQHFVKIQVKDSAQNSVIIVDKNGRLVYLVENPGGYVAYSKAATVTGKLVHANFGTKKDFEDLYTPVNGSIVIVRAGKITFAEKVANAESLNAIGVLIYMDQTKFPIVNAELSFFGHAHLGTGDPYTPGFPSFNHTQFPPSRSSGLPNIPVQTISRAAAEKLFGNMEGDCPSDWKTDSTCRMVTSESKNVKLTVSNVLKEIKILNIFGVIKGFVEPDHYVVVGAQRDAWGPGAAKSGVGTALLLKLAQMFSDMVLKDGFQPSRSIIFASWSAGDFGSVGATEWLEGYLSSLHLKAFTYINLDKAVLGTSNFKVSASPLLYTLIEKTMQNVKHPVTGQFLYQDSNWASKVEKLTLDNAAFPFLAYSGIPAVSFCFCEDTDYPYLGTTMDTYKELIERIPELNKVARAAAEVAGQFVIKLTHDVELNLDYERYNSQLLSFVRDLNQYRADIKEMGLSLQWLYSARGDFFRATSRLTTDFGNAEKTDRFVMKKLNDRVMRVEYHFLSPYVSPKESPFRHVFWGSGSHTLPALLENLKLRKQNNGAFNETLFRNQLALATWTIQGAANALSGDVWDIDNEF
# Experimental: (§1) The binding of VHH-Oligo conjugates to mTfR, rhTfR and hTfR was evaluated using a competition assay on living cells expressing the receptor of interest, namely murine neuroblastoma Neuro-2a cells (N2a), CHO cells genetically engineered by the inventors to stably express the macaque rhesus TfR fused to the eGFP protein in C-terminal (CHO-rhTfR-GFP cells), or human breast ductal carcinoma MCF-7 cells, respectively. MCF-7 and N2a cells were grown in Dulbecco's Modified Eagle Medium (DMEM) GlutaMAX supplemented with 10% v/v FBS in 5% CO2 at 37°C. CHO-rhTfR-GFP cells were grown in Ham F12 GlutaMAX supplemented with 10% v/v FBS in 5% CO2 at 37°C. Cells were seeded two days before experiments in 96-well plates at a density of 50.000 cells/well. On the day of the experiment, free VHHs or VHH-Oligo conjugates diluted at various concentrations in DMEM supplemented with 1% bovine serum albumin (BSA) (MCF-7 and N2a cells) or in Ham F12 supplemented with 1% BSA (CHO-rhTfR-GFP cells) were co-incubated at various concentrations on each cell line during 3 hrs at 37°C with a subsaturating concentration of the fluorescent reference compound C5-Alexa680 (100 nM on N2a and CHO-rhTfR-GFP cell lines, 10 nM on MCF-7 cells). After treatment, cells were washed with D-PBS and dissociated by incubating with Trypsin/EDTA for 5 mins at 37°C, before the addition of cold culture media (4°C) to inhibit Trypsin activity. Resuspended cells were transferred in a 96-deepwell plate (V-bottom) containing 1% fetal bovine serum (FBS) / 0.02% sodium azide in phosphate-buffered saline (PBS) and then centrifuged for 5 min at 2000 rpm at 4°C. After removing the supernatant, 5 mM EDTA in D-PBS and 4% paraformaldehyde (PFA) (v/v 1:1) were added into wells to fix cells for 15 min at room temperature. PFA was removed by centrifugation (5 min, 3000 rpm, 4°C) and cells were resuspended with 5 mM EDTA in D-PBS. Then the cellular A680-associated fluorescence signal was quantified using an Attune™ NxT flow cytometer (Thermo Fisher Scientific) equipped with Attune™ NxT v3.1.2. Experimental data (experimental triplicates) were fitted with GraphPad Prism® software using a nonlinear fit to determine the apparent Ki inhibition constants. Graphs of Figure 1 show representative inhibition curves and tables show means ± SD of at least 2 independent experiments.
# mTfR = molecular target: T2, mTfR (Mus musculus, UniProt Q62351); test: Competition assay with fluorescent reference C5-Alexa680 on living Neuro-2a cells; format: binding; details: cells expressing murine TfR (Neuro-2a), C5-Alexa680 100 nM, 3 hrs at 37°C; Ki similar or lower than free VHHs
# T2 construct: living cells expressing the receptor of interest, namely murine neuroblastoma Neuro-2a cells (N2a); endogenous in cells; host or cells: Neuro-2a (N2a) murine neuroblastoma cells
# T2 sequence (Q62351 whole entry): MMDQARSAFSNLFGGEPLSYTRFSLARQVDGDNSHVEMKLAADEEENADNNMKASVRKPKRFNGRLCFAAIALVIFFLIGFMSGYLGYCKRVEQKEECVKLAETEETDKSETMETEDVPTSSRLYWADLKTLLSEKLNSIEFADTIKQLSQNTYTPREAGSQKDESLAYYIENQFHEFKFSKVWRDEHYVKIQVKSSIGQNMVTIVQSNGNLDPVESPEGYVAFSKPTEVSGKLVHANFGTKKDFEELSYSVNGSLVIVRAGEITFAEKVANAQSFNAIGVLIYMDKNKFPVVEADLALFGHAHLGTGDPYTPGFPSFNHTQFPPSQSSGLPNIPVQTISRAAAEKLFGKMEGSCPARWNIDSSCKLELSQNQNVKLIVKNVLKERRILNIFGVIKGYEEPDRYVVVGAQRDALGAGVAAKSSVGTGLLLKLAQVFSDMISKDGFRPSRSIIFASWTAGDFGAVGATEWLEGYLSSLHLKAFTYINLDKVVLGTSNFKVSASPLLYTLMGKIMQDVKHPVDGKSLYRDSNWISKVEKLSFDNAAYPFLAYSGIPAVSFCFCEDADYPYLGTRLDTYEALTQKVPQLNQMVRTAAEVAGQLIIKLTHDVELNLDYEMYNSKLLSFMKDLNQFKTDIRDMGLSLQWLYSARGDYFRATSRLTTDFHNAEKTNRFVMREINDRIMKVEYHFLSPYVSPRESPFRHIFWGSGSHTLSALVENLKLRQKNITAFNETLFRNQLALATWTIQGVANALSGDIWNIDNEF
# Experimental: as §1
# rhTfR = test: Competition assay with fluorescent reference C5-Alexa680 on living CHO-rhTfR-GFP cells; format: binding; details: cells expressing macaque rhesus TfR (CHO-rhTfR-GFP), C5-Alexa680 100 nM, 3 hrs at 37°C; Ki similar or lower than free VHHs
# Experimental: as §1
# hSOD1 mRNA = test: Free uptake gene silencing (RT-qPCR) in human cell lines; format: cell-based; details: 3 days, various human cell lines (Figure 2A)
# Experimental: Human cell lines MCF-7 (breast ductal carcinoma cells), Igrov-1 (ovarian cancer cells) and MIA PaCa-2 cells (pancreatic cancer cells) and the murine neuroblastoma cell line Neuro-2a were grown in DMEM GlutaMAX supplemented with 10% v/v FBS in 5% CO2 at 37°C. For free uptake experiments, cells were seeded in 96-well plates at a density of 2.000 cells/well. Twenty-four hours later, the medium was removed, and cells were further incubated during 3 days in DMEM supplemented with 1% v/v FBS containing various concentrations of free or conjugated oligos. […] Relative RNA expression levels were quantified by RT-qPCR using the TaqMan™ Fast Universal PCR Master Mix (2X) no AmpErase™ UNG kit (Applied Biosystems) and commercially available TaqMan™ probes for murine SOD1, human SOD1 or human MALAT-1 genes (Applied Biosystems). Expression data were analyzed using the DDCq method normalized to the expression of reference RpL 13 or GAPDH genes, based on raw quantification cycle (Cq) values (Bustin et al.) and are presented as mRNA levels relative to untreated cells. Experimental data (experimental triplicates) are presented as means ± standard deviation (SD) and were analysed with GraphPad Prism® software using a three-parameter log(inhibitor) vs. response nonlinear regression to determine the IC50. […]
# SOD1 mRNA = test: In vivo mRNA knock-down by VHH-siSOD1h conjugate in non-human primates; set-up: species or system olive baboons (Papio Anubis)
# Experimental: VHH-siSOD1h conjugates targeting the human and non-human primate (NHP) SOD1 gene were assessed for their ability to mediate SOD1 mRNA knock-down in muscle tissues of olive baboons (Papio Anubis). PBS vehicle (control) or a TfR-binding VHH-siSOD 1h conjugate was administered as a single intravenous (IV infusion, 30 min) in olive baboons (males, 10-17-month-old, 2.6-4.5kg) at the dose of 5 mg/kg (siRNA molar equivalent). At indicated times following administration, approximately 100 mg samples of gastrocnemius, quadriceps and tibialis anterior muscle were withdrawn under general anesthesia, snap-frozen in 10 vol. ofNucleoProtect RNA stabilization reagent (Macherey-Nagel) and stored at -20°C. […] RNA samples were analyzed and dosed using a Fragment Analyzer RNA kit in a Fragment Analyzer system (Agilent). Relative RNA expression levels were quantified by RT-qPCR using the TaqMan™ Fast Universal PCR Master Mix (2X) no AmpErase™ UNG kit (Applied Biosystems) and commercially available TaqMan™ probes for […] and RpL13 genes (Applied Biosystems). Expression data were analyzed using the DDCq method normalized to the expression of the reference RpL13 gene, based on raw quantification cycle (Cq) values (Bustin et al.). The results are expressed as means ± standard error of the mean (SEM) and are presented as mRNA levels relative to the control animals injected with PBS. […]
Molecule,inhibition of the binding and uptake of the reference compound (hTfR),inhibition of the binding and uptake of the reference compound (mTfR),inhibition of the binding and uptake of the reference compound (rhTfR),effect on hSOD1 mRNA levels (hSOD1 mRNA),"knock-down of SOD1 mRNA (SOD1 mRNA; all muscle tissues tested (gastrocnemius, quadriceps, tibialis anterior), single IV infusion 5 mg/kg (siRNA molar equivalent) (Figure 12))",duration of knock-down (SOD1 mRNA; single IV infusion 5 mg/kg (siRNA molar equivalent))
B1,concentration-dependent inhibition,concentration-dependent inhibition,concentration-dependent inhibition,,,
B2,concentration-dependent inhibition,concentration-dependent inhibition,concentration-dependent inhibition,potent and concentration-dependent hSOD1 mRNA downregulation,,
B3,concentration-dependent inhibition,concentration-dependent inhibition,concentration-dependent inhibition,,,
B4,concentration-dependent inhibition,concentration-dependent inhibition,concentration-dependent inhibition,potent and concentration-dependent hSOD1 mRNA downregulation,60%,more than three months
